Reference: US9862971B2 (BUNDESREPUBLIK DEUTSCHLAND, LETZTVERTRETEN DURCH DEN …, dated 2018)

T1: Human SLAM (signaling lymphocyte-activation molecule) (human, UniProt Q13291)
T1 sequence: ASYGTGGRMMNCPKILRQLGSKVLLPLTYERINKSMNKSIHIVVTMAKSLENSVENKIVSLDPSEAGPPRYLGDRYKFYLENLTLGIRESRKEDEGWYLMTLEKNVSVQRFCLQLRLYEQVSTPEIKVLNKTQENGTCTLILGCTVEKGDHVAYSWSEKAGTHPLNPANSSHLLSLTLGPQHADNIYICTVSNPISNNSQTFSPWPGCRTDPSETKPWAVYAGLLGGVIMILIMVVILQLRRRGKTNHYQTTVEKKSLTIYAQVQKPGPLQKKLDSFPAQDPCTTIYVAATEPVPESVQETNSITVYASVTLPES

B1: HmutscFvCD20Δ18 (other)
chain: MGSRIVINREHLMIDRPYVLLAVLFVMFLSLIGLLAIAGIRLHRAAIYTAEIHKSLSTNLDVTNSIEHQVKDVLTPLFKIIGDEVGLRTPQRFTDLVKFISDKIKFLNPDREYDFRDLTWCINPPERIKLDYDQYCADVAAEELMNALVNSTLLETRTTNQFLAVSKGNCSGPTTIRGQFSNMSLSLLDLYLGRGYNVSSIVTMTSQGMYGGTYLVEKPNLSSKRSELSQLSMYRVFEVGVIRNPGLGAPVFHMTNYLEQPVSNDLSNCMVALGELKLAALCHGEDSITIPYQGSGKGVSFQLVKLGVWKSPTDMQSWVPLSTDDPVIDRLYLSSHRGVIADNQAKWAVPTTRTDDKLRMETCFQQACKGKIQALCENPEWAPLKDNRIPSYGVLSVDLSLTVELKIKIASGFGPLITHGSGMDLYKSNHNNVYWLTIPPMKNLALGVINTLEWIPRFKVSPALFTVPIKEAGGDCHAPTYLPAEVDGDVKLSSNLVILPGQDLQYVLATYDTSAVEHAVVYYVYSPSRLSSYFYPFRLPIKGVPIELQVECFTWDQKLWCRHFCVLADSESGGHITHSGMVGMGVSCTVTREDGTNAAQPAIEGRMAQVQLVQSGAELVKPGASVKMSCKASGYTFTSYNMHWVKQTPGQGLEWIGAIYPGNGDTSYNQKFKGKATLTADKSSSTAYMQLSSLTSEDSAVYYCARAQLRPNYWYFDVWGAGTTVTVSKISGGGGSGGGGSGGGGSGGSSDIVLSQSPAILSASPGEKVTMTCRASSSVSYMHWYQQKPGSSPKPWIYATSNLASGVPARFSGSGSGTSYSLTISRVEAEDAATYYCQQWISNPPTFGAGTKLELKAAARGSHHHHHH
B2: HmutscFvCD20Δ24+4A (other)
chain: MAAAANREHLMIDRPYVLLAVLFVMFLSLIGLLAIAGIRLHRAAIYTAEIHKSLSTNLDVTNSIEHQVKDVLTPLFKIIGDEVGLRTPQRFTDLVKFISDKIKFLNPDREYDFRDLTWCINPPERIKLDYDQYCADVAAEELMNALVNSTLLETRTTNQFLAVSKGNCSGPTTIRGQFSNMSLSLLDLYLGRGYNVSSIVTMTSQGMYGGTYLVEKPNLSSKRSELSQLSMYRVFEVGVIRNPGLGAPVFHMTNYLEQPVSNDLSNCMVALGELKLAALCHGEDSITIPYQGSGKGVSFQLVKLGVWKSPTDMQSWVPLSTDDPVIDRLYLSSHRGVIADNQAKWAVPTTRTDDKLRMETCFQQACKGKIQALCENPEWAPLKDNRIPSYGVLSVDLSLTVELKIKIASGFGPLITHGSGMDLYKSNHNNVYWLTIPPMKNLALGVINTLEWIPRFKVSPALFTVPIKEAGGDCHAPTYLPAEVDGDVKLSSNLVILPGQDLQYVLATYDTSAVEHAVVYYVYSPSRLSSYFYPFRLPIKGVPIELQVECFTWDQKLWCRHFCVLADSESGGHITHSGMVGMGVSCTVTREDGTNAAQPAIEGRMAQVQLVQSGAELVKPGASVKMSCKASGYTFTSYNMHWVKQTPGQGLEWIGAIYPGNGDTSYNQKFKGKATLTADKSSSTAYMQLSSLTSEDSAVYYCARAQLRPNYWYFDVWGAGTTVTVSKISGGGGSGGGGSGGGGSGGSSDIVLSQSPAILSASPGEKVTMTCRASSSVSYMHWYQQKPGSSPKPWIYATSNLASGVPARFSGSGSGTSYSLTISRVEAEDAATYYCQQWISNPPTFGAGTKLELKAAARGSHHHHHH
B3: HmutEGFΔ18 (other)
chain: MGSRIVINREHLMIDRPYVLLAVLFVMFLSLIGLLAIAGIRLHRAAIYTAEIHKSLSTNLDVTNSIEHQVKDVLTPLFKIIGDEVGLRTPQRFTDLVKFISDKIKFLNPDREYDFRDLTWCINPPERIKLDYDQYCADVAAEELMNALVNSTLLETRTTNQFLAVSKGNCSGPTTIRGQFSNMSLSLLDLYLGRGYNVSSIVTMTSQGMYGGTYLVEKPNLSSKRSELSQLSMYRVFEVGVIRNPGLGAPVFHMTNYLEQPVSNDLSNCMVALGELKLAALCHGEDSITIPYQGSGKGVSFQLVKLGVWKSPTDMQSWVPLSTDDPVIDRLYLSSHRGVIADNQAKWAVPTTRTDDKLRMETCFQQACKGKIQALCENPEWAPLKDNRIPSYGVLSVDLSLTVELKIKIASGFGPLITHGSGMDLYKSNHNNVYWLTIPPMKNLALGVINTLEWIPRFKVSPALFTVPIKEAGGDCHAPTYLPAEVDGDVKLSSNLVILPGQDLQYVLATYDTSAVEHAVVYYVYSPSRLSSYFYPFRLPIKGVPIELQVECFTWDQKLWCRHFCVLADSESGGHITHSGMVGMGVSCTVTREDGTNAAQPAMANSDSECPLSHDGYCLHDGVCMYIEALDKYACNCVVGYIGERCQYRDLKWWELRAAARGSHHHHHH
B4: HmutEGFΔ19 (other)
chain: MSRIVINREHLMIDRPYVLLAVLFVMFLSLIGLLAIAGIRLHRAAIYTAEIHKSLSTNLDVTNSIEHQVKDVLTPLFKIIGDEVGLRTPQRFTDLVKFISDKIKFLNPDREYDFRDLTWCINPPERIKLDYDQYCADVAAEELMNALVNSTLLETRTTNQFLAVSKGNCSGPTTIRGQFSNMSLSLLDLYLGRGYNVSSIVTMTSQGMYGGTYLVEKPNLSSKRSELSQLSMYRVFEVGVIRNPGLGAPVFHMTNYLEQPVSNDLSNCMVALGELKLAALCHGEDSITIPYQGSGKGVSFQLVKLGVWKSPTDMQSWVPLSTDDPVIDRLYLSSHRGVIADNQAKWAVPTTRTDDKLRMETCFQQACKGKIQALCENPEWAPLKDNRIPSYGVLSVDLSLTVELKIKIASGFGPLITHGSGMDLYKSNHNNVYWLTIPPMKNLALGVINTLEWIPRFKVSPALFTVPIKEAGGDCHAPTYLPAEVDGDVKLSSNLVILPGQDLQYVLATYDTSAVEHAVVYYVYSPSRLSSYFYPFRLPIKGVPIELQVECFTWDQKLWCRHFCVLADSESGGHITHSGMVGMGVSCTVTREDGTNAAQPAMANSDSECPLSHDGYCLHDGVCMYIEALDKYACNCVVGYIGERCQYRDLKWWELRAAARGSHHHHHH
B5: HmutEGFΔ24+4A (other)
chain: MAAAANREHLMIDRPYVLLAVLFVMFLSLIGLLAIAGIRLHRAAIYTAEIHKSLSTNLDVTNSIEHQVKDVLTPLFKIIGDEVGLRTPQRFTDLVKFISDKIKFLNPDREYDFRDLTWCINPPERIKLDYDQYCADVAAEELMNALVNSTLLETRTTNQFLAVSKGNCSGPTTIRGQFSNMSLSLLDLYLGRGYNVSSIVTMTSQGMYGGTYLVEKPNLSSKRSELSQLSMYRVFEVGVIRNPGLGAPVFHMTNYLEQPVSNDLSNCMVALGELKLAALCHGEDSITIPYQGSGKGVSFQLVKLGVWKSPTDMQSWVPLSTDDPVIDRLYLSSHRGVIADNQAKWAVPTTRTDDKLRMETCFQQACKGKIQALCENPEWAPLKDNRIPSYGVLSVDLSLTVELKIKIASGFGPLITHGSGMDLYKSNHNNVYWLTIPPMKNLALGVINTLEWIPRFKVSPALFTVPIKEAGGDCHAPTYLPAEVDGDVKLSSNLVILPGQDLQYVLATYDTSAVEHAVVYYVYSPSRLSSYFYPFRLPIKGVPIELQVECFTWDQKLWCRHFCVLADSESGGHITHSGMVGMGVSCTVTREDGTNAAQPAMANSDSECPLSHDGYCLHDGVCMYIEALDKYACNCVVGYIGERCQYRDLKWWELRAAARGSHHHHHH

Assays:
Experiment in all cases: cell-based or functional assay
CD46 [1] = target: T2, CD46 (human, UniProt P15529)
human CD20 = human CD20 (human, UniProt P11836)
Human SLAM (signaling …) = target: T1, Human SLAM (signaling …)
CD46 [2] = target: T2, CD46; remark: listed apart in the source
EGF-receptor = EGF-receptor (Homo sapiens (Human), UniProt P00533)

Binder | titer [t.u./ml] of HIV-1 vector particles on HT1080 cells, concentrated supernatant (CD46 [1]) | titer [t.u./ml] of HIV-1 vector particles on HT1080-CD20 cells, concentrated supernatant (human CD20) | titer [t.u./ml] of HIV-1 vector particles on CHO-hSLAM cells, concentrated supernatant (Human SLAM (signaling …)) | titer [t.u./ml] of HIV-1 vector particles on CHO-BC1 cells, concentrated supernatant (CD46 [2]) | titer [t.u./ml] of HIV-1 vector particles on A-431 cells, concentrated supernatant (EGF-receptor)
B1 | 980 t.u./ml | 200000 t.u./ml |  |  | 
B2 | 200 t.u./ml | 8600 t.u./ml |  |  | 
B3 |  |  | 280 t.u./ml | 0 t.u./ml | 270000 t.u./ml
B4 |  |  | 160 t.u./ml | 0 t.u./ml | 22000 t.u./ml
B5 |  |  | 960 t.u./ml | 800 t.u./ml | 58000 t.u./ml
